Measured values published in a protein production outcome set (Wang et al. 2014).

Experiment: label from the status in PepcDB records
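Also: failed if final PepcDB status was selected cloned or expressed and not failed if soluble or beyond.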

Q: Which protein production does the source give for “MSANMHIFENPSALAEALADDVGARLAAAIAARGTASLAVSGGSTPKAFFRSLSRRELDWSKVTVTLVDERFVPPENDRSNHRLVADNLLKDGAAEARFVPLYQAAETAEAAAAIASGRTASLGAPLDVVVLGMGTDGHTASFFPGGTRLEEALDPTTPRGVITMEAEGAGEPRLTFTFSSLQDAGYLVLHIEGSGKKEVLAQAEASGDEAEMPIRAMLRRAASPLQIYWAP” here?
A: failed

Q: For “MSANNTAKNMHPETRAVGSETSSLQASQDEFENLVRNVDVKSRIMDQYADWKGVRYRLGGSTKKGIDCSGFVQRTFREQFGLELPRSTYEQQEMGKSVSRSNLRTGDLVLFRAGSTGRHVGIYIGNNQFVHASTSSGVIISSMNEPYWKKRYNEARRVLSRSLEHHHHHH”, which protein production is on record?
A: not failed

Q: For “MSAQFMTTVPVVLYLALSFGVALWARGRTAEGGSAKDIIEEYYIGGRSMGGFVLAMTIIASYTSAGSFVGGPGVAYRLGLSWVLLAMIQVPTTFLTLGVLGKRFAIVARRAGAVTLTDYLLARYRSHTVVILCSAALLVFFMAAMLAQFIGGARLFQTVTGYPYVVGLALFGVTVVLYTAVGGFRAVVVTDAVQGIVMVVAVVVVLLAVIDAGGGMTQCIATLKAIDPGLITPTGPGDAVPQPFMLSFWVLVGLGVLGLPQTTQRCMGYRDSRAMHDAMIIGTLLIGFMILCAHLAGTLGRAVLPDLPAGDLAMPSLIVQLLSPFWAGVFIAGPLAAIMSTVDSMLLLASAAIVKDLYVRYRLGGDTSRLRPVTMKRMSVASTAVIGVLVFVAAMEPPDLLVWINLFAFGGLEAVFLWPLVLGLYWRRGNATGAIASILSGVTAFVWLTIAKPDMGGIHAIVPTTLLSLVMFVAGSLAGRPSGREVDALFGGERS”, which protein production is on record?
A: failed

Q: For “MSASGLLVEKSGPLSLIQDFGRFGLAHIGITQGGPVDDYAYSWANHLLGNRVNCSAIEITLGNACFIALQDCHLAICGGDLNASVDGHPIANWSDFSIKKGQKLQFGMAKNGLRAYLAVKGGFNVPEHLGSSSTVLREALGGLEANGNALKAGDVLPFDAHSLPNHKPRIMTFRFKPDYNLPITLRVIEGYQCDDFSVEAKEKFYSGSFAISPDSNRMGYRLEGNTVKPPYDGILSEGIALGAIQIPHDGNPIVLLNDHQTIGGYPKLGCVARIDLPRLAQAKPGQKVRFVKGDRQGLQDVWCQWAQFFGY”, which protein production is on record?
A: failed

Q: For “MSASIRDAGVADLPGILAIYNDAVGNTTAIWNETPVDLANRQAWFDTRARQGYPILVASDAAGEVLGYASYGDWRPFEGFRGTVEHSVYVRDDQRGKGLGVQLLQALIERARAQGLHVMVAAIESGNAASIGLHRRLGFEISGQMPQVGQKFGRWLDLTFMQLNLDPTRSAP”, which protein production is on record?
A: not failed

Q: For “MSASRILTAFGLTGALVTAGVAQAGIVYIPEGSADSVLMVESETGQPVGRISGVEAVHGLAGAPGTPYLVAGSYSEIDPESAAQTARPEGVSQADHNAHHAKPAKAAMPTDKGLSLVSVIDAGTGEVVRRIEVPGAVHHTAVSPDGRWAMATHPGGDGVSLIDLSTLEYAGFIATGPMPNYVSFSPDNSRAYVSNAGNGTLSELDLDRRILSRNLLAGEGPEHFALSRDGATVFVADAEAGRVLRLDIASGAETASYGFGAELHGLDLSEREDTLFVAVKGADQVAAVDLASGAVRLQELAPAPYHLTVADGGETLFVSSREASMVWAVDQVSLRVTAEIGIEGEGHQMVVLP”, which protein production is on record?
A: failed

Q: With “MSASTGASVIDLYHQAQDYFFVSISQFYRRFGSGLSAYCTGVEASSLNLLMMNVCAVDEPGALAEGVAFLQRTGMPFCVVVPEALVPRVSGQLHQQHLLAADKTTCMVLDLTRHEPRQALAAQAQVRCSDLRLEDWAQPVQSAFESGEGGIEQYLARHRAALSAGRALSHFTLYVEERPVSALTLSLLPGLARLDDIGTVQDCQGQGYATALIQAVLAFARARGARTCVLEASLDGLSIYRKAGFEALFDYRTFCQE” as the sequence, how does the protein production read?
A: failed

Q: For “MSATGLEVFDRTLHKTHAWLKAIMEELGTEDRHKAYLALRAVLHALRDRLTVEEVAQLAAQLPMLVRGLYYEGWDPTGKPLKERHKEAFLAHVAEELKTPSGPAVDPEAATRAVFKVLSREISQGELEDVLGLLPKELRALWPQG”, which protein production is on record?
A: not failed

Q: Which protein production does the source give for “MSATYQLALQQLTDSALPTGAFAHSLGFESYIHRGLVRDESTFSTWLQAFVSQQLSYSDGLALRFLFEGVDVGLLDGVLSAQLLAREVREASLKMGGRLLEIGGEVFPSAELEAYRGLVRAGSASGHQPLAFGVIARSLGVPLEEALSAYLFATVTSLTQNAVRAIPLGQNAGQRVLRQAHDAVAAAIHVVAQLCWDDFGAVSPGLEISQMRHERQRARMFMS” here?
A: failed

Q: With “MSAYPPGAAPSDPVDPVTLEAGQTAKVTRPTGRFMLGHPARLIALGFGSGLSPVSPGTVGTLLGWLSFIVISKWIDPTTWLWIIAGGFVIGIWACLRTARDMGVYDHGSMVWDEIVAFWLVLLFVMPTGFWGQFAAFVWFRFFDIVKPAPIRYYDRTLKGPGFTGAFGVMFDDIFAAFYTLLVFALWRSI” as the sequence, how does the protein production read?
A: failed

Q: Which protein production does the source give for “MSCRHGTTRCRSLCDYGGLSMQYVNTCPVLNVEECDRLSFMPYLFGTDFMLAELQVYALAKKWMPGYEGGFWHFIRLPEGGGYMMPDCGRVHLVSSENWFDRTVSADAAGIILTSLAINRRLAAHHDSSNPALTRLYMLRDAQLWNHITFHPECSAIYAALD” here?
A: failed

Q: With “MSCTNRVPGILMCEIFIRANQRSYSVQARSLRLHGVATSVRLEQLFWDVLEEIAARDGMRVTQLIERLYDELVQYRGEAANFTSFLRVCCLRYQVLQAEGRIPADATVPIRSLDAQAVLRGLPANLYDSRPLG” as the sequence, how does the protein production read?
A: failed

Q: Which protein production does the source give for “MSCYNKALLIGNKVVVILVFLLCLVHSSESLRPLFACDPANGLTRTLRFCRANVPIHVRVQDLLGRLTLQEKIRNLVNNAAAVPRLGIGGYEWWSEALHGISDVGPGAKFGGAFPGATSFPQVITTAASFNQSLWEEIGRVVSDEARAMYNGGVAGLTYWSPNVNILRDPRWGRGQETPGEDPIVAAKYAASYVRGLQGTAAGNRLKVAACCKHYTAYDLDNWNGVDRFHFNAKVTQQDLEDTYNVPFKSCVYEGKVASVMCSYNQVNGKPTCADENLLKNTIRGQWRLNGYIVSDCDSVDVFFNQQHYTSTPEEAAARSIKAGLDLDCGPFLAIFTEGAVKKGLLTENDINLALANTLTVQMRLGMFDGNLGPYANLGPRDVCTPAHKHLALEAAHQGIVLLKNSARSLPLSPRRHRTVAVIGPNSDVTETMIGNYAGKACAYTSPLQGISRYARTLHQAGCAGVACKGNQGFGAAEAAAREADATVLVMGLDQSIEAETRDRTGLLLPGYQQDLVTRVAQASRGPVILVLMSGGPIDVTFAKNDPRVAAIIWAGYPGQAGGAAIANIIFGAANPGGKLPMTWYPQDYVAKVPMTVMAMRASGNYPGRTYRFYKGPVVFPFGFGLSYTTFTHSLAKSPLAQLSVSLSNLNSANTILNSSSHSIKVSHTNCNSFPKMPLHVEVSNTGEFDGTHTVFVFAEPPINGIKGLGVNKQLIAFEKVHVMAGAKQTVQVDVDACKHLGVVDEYGKRRIPMGEHKLHIGDLKHTILVQPQL” here?
A: failed

Q: With “MSDAAISCSWKPFFRELATRLLDYEDRQPELLAALRDASISINHDEGEPLREVDPFTFFSLVLKHTSDATALPLFARVGAALGVQAPSPTDLIGVPWSNPMNAWFFAYRSQRQPGDVPLLWRLARQAVAGILDAQTFEDALKIRKVALPKLTQGLFWLNPERFLALNAVNVPYLQARGLQAAGQVQTLAEYETVLEAAHKLNPDFAALSHRAWLNSQTAALEGNHFPFARYQADAQEFAGDKVKGNLVLDRRYAPLLLDLMAGEWETLKPSRSPYSGREQLAVKVALGGGVKTDGGAFARALLFADDSGFEYVPFSAGLTLEAGLPDGRGDGPRQALQEPARQHTLLTALNAPLPAGLEATLTLNTDFGALFLLPLGPGREAEAAQQLQQYMSGVGRSRRLRVGLSLLPEHLESDKFPELLDAALTYLDALVDLLDGLMRPSEETSTEEIGVPGTRPVAPTPAAFVPVPGVPLNQILYGPPGTGKTYRVVDEALSVLDPAFLSAHPGSEGRAARKARYDELAAQGQISFVTFHQSFGYEDFIEGIKPVMSGGALSYVLQDGVFLEAVRSAGGALAPAAPEAGPSTETQPLVRPDAQVWRMYIDGTAPVSRIRDLSLGRGELRMGSYGKPPRDLTQAGVEDLSGRQLLFKESVRVGDLMLLATAADRIGAVGVVTGDYRFDPHSDPTFATDYAHTRSVKWLAQDLNVGATETLGKSFAPPTLQRVADVTPAQVLQALGVSTAGGETAHAPTPRPHVLIIDEINRGNISKIFGELITLLESGKRTGAPEALTVTLPLSRRPLSVPQSLYVIGTMNTADRSLTLLDAALRRRFVFRPVWPQPEVLPVLDLGGTALDLRKFLHVINDRIERLLSREQVIGHAYLLGLPATLGGVSSALRERILPLLEEYFFEDWSKIREVLGDESKAEALQFIHRSGSGPELRYRLNPEAFENIEAFTGVYAGVSDQDFPFDA” as the sequence, how does the protein production read?
A: failed

Q: Which protein production does the source give for “MSDAMPLDQTLEQLTQDEWIDIPQGWSQGRTIYGGLVAGLLMHKALSVMNDESKNLLSTSITFVGPVNEGRVRLTVEILRQGKSVTTIEARLWQDQAVQTILIASFGQPRSSEIFVLNLPEAPDYLSPEQFSRMPFVKMMPECYQQFDLRWAEGHYPMTQQAPDFGGWCRYDIQKHSPRALNVADLLILMDIWPPGVLPMFQTIAPASSLTWHLTFVRPVAYELHDWFKYQVVTQHAAFGYATEYAHLWDAQNRLIAISRQTVTVFA” here?
A: failed

Q: With “MSDAPVCERNPFLGMWSMVTRKTASGASLGAGQAITPLEAMRCYTANPARAEGQAARKGTLSPGKLADLIVLDRDPCAVDPDEIRHTQVLATLVGGQATYRAAGAPLEHHHHHH” as the sequence, how does the protein production read?
A: failed

Q: For “MSDAQLGPLRLTLLSVSARTGFCKKQQELWQRRKEAAEALGTRKVSVLLATSHSGARPAVSTMDSSAAPTNASNCTDALAYSSCSPAPSPGSWVNLSHLDGNLSDPCGPNRTDLGGRDSLCPPTGSPSMITAITIMALYSIVCVVGLFGNFLVMYVIVRYTKMKTATNIYIFNLALADALATSTLPFQSVNYLMGTWPFGTILCKIVISIDYYNMFTSIFTLCTMSVDRYIAVCHPVKALDFRTPRNAKIINVCNWILSSAIGLPVMFMATTKYRQGSIDCTLTFSHPTWYWENLLKICVFIFAFIMPVLIITVCYGLMILRLKSVRMLSGSKEKDRNLRRITRMVLVVVAVFIVCWTPIHIYVIIKALVTIPETTFQTVSWHFCIALGYTNSCLNPVLYAFLDENFKRCFREFCIPTSSNIEQQNSTRIRQNTRDHPSTANTVDRTNHQVRSL”, which protein production is on record?
A: failed

Q: Which protein production does the source give for “MSDDEIGDGARAFNQLIQALSLSIETETAVRTFTEMLVSELDVHQLTEQALALLLQHTGADGGAILIEVDGEIRVAASQGIGSAHTLANNDRVRSALRTERRHRVQLPEDLVVDGMLAQFRPKEVIIDPVRHKEVVLGAVVLASGQGFSAEDRNRLDVFERGLALALHNALLYDRLQTLAALDPLEHHHHHH” here?
A: failed

Q: For “MSDGPLLNDVTRAFAEAHRNEDVRDLALKTKRTADLDLPAALDQIAGWQIARNKLPQWAACADIVYPAHISMEQCSSQFTAQYKAEIARRLLRSLPQSAGQTANDATMTDLTGGFGVDFSYLARGFGHATYVERQSHLCELAAHNMAALGLTQAQVVCGDGVEYLRAMEPAQLIYIDPARRDEHGARTYAIEDCTPDVLALRDLLLAKARYVMIKLSPMLDWRKAVDDFAGTVAEVHIVSTGNECKELLLVLDGKAAGATSDAAAADTRAPHVYCVNDDQRLDYDAAAYTRGLRIGDAPLPHELRYLYEPNASIMKAGCFDVVEARFGAVQIGPSSHLFVSDEPVDGFPGRGFAIETIGGMGKKELKRLLSGLDRANIAVRNFPLTAPQLRKKLKLADGGDAYLFGTTMQGGDHVLIRTAKISR”, which protein production is on record?
A: failed

Q: For “MSDHEAGHKFLARLGKKRLRPGGRKATEWLLSQAAFRQDSVVLEVACNMGTTAMEIARRFGCKVIGADMDKAALQKAQENVAANGLASQVTIMQANALELPFPDNHFDVVINEAMLTMYADKAKSRIIAEYYRVLKPGGRLITHDIMLLSEKDTGALQAVEQMHKAINVHAQPMLRERWVTLFQECGFSKVNYDNGAMTLLTPQGLIYDEGVAGAARIVKNALKKENRSMFFNMFHTFRRNRNQLNYIAVCSTK”, which protein production is on record?
A: failed
